Assay results: patent publication KR20150078472A (dated 2015)
Values belong to the binder of their own block, whether it stands above or below them.

Tests used:
[1] = target: T1, Seryl-tRNA synthetase (SRS) (UniProt P49591 1-514, limits assumed); assay: Luminex multiplex bead assay, antigen-coupled beads, anti-HA-biotin and SA-PE detection
T1 construct: Recombinant antigen, purity above 90%, coupled to a Luminex bead; also called 세릴-tRNA 합성효소

[2] = target: T2, Histidyl-tRNA synthetase (HRS) (UniProt P12081 1-509, limits assumed); assay: as above
T2 construct: Recombinant antigen, purity above 90%, coupled to a Luminex bead; also called 히스티딜-tRNA 합성효소
T2 sequence (looked up): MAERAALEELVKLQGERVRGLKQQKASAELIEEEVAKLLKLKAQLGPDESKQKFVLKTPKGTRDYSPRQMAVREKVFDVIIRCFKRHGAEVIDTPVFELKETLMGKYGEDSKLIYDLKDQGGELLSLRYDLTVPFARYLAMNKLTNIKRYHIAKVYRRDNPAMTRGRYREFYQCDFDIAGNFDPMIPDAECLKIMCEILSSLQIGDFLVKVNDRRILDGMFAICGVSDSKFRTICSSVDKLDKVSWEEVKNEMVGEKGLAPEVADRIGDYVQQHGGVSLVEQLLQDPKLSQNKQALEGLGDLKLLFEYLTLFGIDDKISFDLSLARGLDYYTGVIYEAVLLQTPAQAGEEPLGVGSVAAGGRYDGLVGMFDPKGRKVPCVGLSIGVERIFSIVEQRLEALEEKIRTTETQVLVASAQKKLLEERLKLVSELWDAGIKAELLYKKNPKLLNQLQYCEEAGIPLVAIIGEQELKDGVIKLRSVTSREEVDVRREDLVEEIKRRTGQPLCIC

[3] = target: T3, Lysyl-tRNA synthetase (KRS) (UniProt Q15046 1-597, limits assumed); assay: as above
T3 construct: Recombinant antigen, purity above 90%, coupled to a Luminex bead; also called 리실-tRNA 합성효소

[4] = target: T4, Tyrosyl-tRNA synthetase (YRS) (UniProt P54577 1-528, limits assumed); assay: as above
T4 construct: Recombinant antigen, purity above 90%, coupled to a Luminex bead; also called 타이로실-tRNA 합성효소
T4 sequence (looked up): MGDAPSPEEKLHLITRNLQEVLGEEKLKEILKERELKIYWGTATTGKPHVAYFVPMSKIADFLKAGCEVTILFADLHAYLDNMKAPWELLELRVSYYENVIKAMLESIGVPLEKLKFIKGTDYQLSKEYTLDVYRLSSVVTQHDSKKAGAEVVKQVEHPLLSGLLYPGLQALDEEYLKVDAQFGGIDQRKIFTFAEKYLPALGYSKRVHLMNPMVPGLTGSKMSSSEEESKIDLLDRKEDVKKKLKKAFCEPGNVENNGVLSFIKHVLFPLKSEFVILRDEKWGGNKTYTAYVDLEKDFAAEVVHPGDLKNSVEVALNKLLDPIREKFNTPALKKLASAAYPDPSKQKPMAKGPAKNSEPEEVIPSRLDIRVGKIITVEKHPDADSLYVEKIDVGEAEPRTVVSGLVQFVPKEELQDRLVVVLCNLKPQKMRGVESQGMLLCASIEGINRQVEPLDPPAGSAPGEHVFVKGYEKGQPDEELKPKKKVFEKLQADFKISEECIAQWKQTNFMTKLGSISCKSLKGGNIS

[5] = target: T5, Asparaginyl-tRNA synthetase (NRS) (UniProt O43776 1-548, limits assumed); assay: as above
T5 construct: Recombinant antigen, purity above 90%, coupled to a Luminex bead; also called 아스파라기닐딜-tRNA 합성효소
T5 sequence (looked up): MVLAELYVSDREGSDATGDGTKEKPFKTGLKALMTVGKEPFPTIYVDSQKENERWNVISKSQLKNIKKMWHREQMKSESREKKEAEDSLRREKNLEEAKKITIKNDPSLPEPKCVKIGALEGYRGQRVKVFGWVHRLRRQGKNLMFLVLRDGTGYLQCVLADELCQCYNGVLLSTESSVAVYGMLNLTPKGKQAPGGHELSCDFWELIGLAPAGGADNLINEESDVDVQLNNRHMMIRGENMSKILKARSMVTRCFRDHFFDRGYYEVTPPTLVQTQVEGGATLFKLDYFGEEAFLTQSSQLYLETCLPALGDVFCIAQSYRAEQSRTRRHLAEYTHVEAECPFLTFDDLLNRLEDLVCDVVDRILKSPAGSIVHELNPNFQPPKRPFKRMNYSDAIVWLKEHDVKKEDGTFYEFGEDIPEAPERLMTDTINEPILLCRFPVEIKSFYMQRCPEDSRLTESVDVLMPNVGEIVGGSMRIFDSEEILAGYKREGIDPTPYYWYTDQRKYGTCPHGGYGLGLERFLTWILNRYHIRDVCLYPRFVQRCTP

[6] = target: T6, Tryptophanyl-tRNA synthetase (WRS) (UniProt P23381 1-471, limits assumed); assay: as above
T6 construct: Recombinant antigen, purity above 90%, coupled to a Luminex bead; also called 트립토파닐-tRNA 합성효소
T6 sequence (looked up): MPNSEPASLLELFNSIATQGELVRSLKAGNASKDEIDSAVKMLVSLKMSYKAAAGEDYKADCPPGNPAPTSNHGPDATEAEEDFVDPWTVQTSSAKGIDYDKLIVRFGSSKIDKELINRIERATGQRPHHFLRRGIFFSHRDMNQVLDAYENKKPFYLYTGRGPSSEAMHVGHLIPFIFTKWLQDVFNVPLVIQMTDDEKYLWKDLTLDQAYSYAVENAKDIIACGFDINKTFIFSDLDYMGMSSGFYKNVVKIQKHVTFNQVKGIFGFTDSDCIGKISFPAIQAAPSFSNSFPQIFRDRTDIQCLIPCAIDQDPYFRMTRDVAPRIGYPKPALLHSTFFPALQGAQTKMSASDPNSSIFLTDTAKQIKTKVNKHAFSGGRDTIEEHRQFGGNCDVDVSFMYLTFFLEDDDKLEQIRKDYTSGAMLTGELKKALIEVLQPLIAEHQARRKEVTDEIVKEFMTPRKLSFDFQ

[7] = target: T7, Glycyl-tRNA synthetase (GRS) (UniProt P41250 55-739, limits assumed); assay: as above
T7 construct: Recombinant antigen, purity above 90%, coupled to a Luminex bead; also called 글리실-tRNA 합성효소
T7 sequence (looked up): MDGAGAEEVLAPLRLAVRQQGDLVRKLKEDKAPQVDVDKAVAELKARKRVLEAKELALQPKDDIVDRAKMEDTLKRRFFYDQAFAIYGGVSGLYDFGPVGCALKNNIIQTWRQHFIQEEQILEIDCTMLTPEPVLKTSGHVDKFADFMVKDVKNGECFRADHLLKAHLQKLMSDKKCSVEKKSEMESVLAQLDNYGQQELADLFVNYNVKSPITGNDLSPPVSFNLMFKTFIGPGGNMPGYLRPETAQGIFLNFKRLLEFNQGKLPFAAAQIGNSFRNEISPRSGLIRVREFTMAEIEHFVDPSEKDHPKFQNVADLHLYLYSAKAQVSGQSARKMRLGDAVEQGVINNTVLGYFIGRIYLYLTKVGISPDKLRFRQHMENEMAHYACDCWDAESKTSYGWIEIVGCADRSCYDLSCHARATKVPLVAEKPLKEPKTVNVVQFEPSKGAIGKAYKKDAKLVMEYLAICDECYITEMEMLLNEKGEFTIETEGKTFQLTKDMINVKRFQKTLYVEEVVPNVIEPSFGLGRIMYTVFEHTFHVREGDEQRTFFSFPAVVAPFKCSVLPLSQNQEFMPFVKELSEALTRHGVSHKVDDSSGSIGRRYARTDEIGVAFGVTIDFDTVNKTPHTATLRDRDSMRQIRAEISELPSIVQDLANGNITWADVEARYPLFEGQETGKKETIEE

[8] = target: T8, AIMP1/p43 natively expressed in human cells (HeLa cell lysate) (human, UniProt Q12904 2-312, limits assumed); assay: western blot on HeLa cell lysate, periplasmic scFv, anti-HA-HRP detection
T8 construct: Endogenous protein, denatured on a western blot; also called human 세포에서 원래 발현된 AIMP1/p43
T8 sequence (looked up): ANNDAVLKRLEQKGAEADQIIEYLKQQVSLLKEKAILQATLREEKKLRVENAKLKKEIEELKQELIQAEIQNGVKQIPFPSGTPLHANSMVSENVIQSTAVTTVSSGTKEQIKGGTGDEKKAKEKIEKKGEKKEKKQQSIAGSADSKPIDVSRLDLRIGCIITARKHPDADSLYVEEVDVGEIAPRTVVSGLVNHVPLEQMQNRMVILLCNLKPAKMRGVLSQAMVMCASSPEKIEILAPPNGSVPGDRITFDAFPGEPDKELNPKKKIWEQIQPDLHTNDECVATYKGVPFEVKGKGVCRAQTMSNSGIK

[9] = target: T9, recombinant AIMP1/p43 (ARS-interacting multifunctional protein 1) (human, UniProt Q12904 1-312, limits assumed); assay: SPR (ProteOn XPR36), AIMP1/p43 amine-coupled on GLC chip, scFv 200-25 nM as analyte, 25°C
T9 construct: Purified recombinant antigen used in SPR, on Luminex beads and as the ELISA standard; It calls the target human AIMP1/p43 in the summary and claims; also called AIMP1/p43 항원; 재조합 AIMP1/p43 표준물질
T9 sequence (looked up): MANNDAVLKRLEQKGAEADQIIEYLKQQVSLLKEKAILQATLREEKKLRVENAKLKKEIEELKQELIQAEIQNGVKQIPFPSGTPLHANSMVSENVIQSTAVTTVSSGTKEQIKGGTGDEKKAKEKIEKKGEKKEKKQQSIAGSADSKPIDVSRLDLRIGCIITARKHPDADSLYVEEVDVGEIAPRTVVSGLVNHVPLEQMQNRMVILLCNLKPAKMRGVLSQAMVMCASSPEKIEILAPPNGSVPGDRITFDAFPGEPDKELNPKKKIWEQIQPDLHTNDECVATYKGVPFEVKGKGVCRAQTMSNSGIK

T1 sequence (P49591 whole entry): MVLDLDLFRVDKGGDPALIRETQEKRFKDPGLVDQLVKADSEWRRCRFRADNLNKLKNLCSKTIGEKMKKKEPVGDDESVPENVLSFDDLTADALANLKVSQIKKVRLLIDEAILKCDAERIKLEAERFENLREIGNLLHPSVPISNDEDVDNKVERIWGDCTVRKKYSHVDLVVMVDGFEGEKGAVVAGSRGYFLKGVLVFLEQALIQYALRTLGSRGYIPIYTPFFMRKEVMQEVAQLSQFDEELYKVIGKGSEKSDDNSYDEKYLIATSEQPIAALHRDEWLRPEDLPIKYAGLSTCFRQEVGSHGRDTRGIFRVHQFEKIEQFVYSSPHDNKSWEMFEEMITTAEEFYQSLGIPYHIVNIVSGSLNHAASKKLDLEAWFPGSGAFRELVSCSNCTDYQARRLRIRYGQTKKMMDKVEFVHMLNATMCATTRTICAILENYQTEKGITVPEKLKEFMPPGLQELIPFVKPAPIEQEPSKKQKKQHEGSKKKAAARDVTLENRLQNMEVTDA
T3 sequence (Q15046 whole entry): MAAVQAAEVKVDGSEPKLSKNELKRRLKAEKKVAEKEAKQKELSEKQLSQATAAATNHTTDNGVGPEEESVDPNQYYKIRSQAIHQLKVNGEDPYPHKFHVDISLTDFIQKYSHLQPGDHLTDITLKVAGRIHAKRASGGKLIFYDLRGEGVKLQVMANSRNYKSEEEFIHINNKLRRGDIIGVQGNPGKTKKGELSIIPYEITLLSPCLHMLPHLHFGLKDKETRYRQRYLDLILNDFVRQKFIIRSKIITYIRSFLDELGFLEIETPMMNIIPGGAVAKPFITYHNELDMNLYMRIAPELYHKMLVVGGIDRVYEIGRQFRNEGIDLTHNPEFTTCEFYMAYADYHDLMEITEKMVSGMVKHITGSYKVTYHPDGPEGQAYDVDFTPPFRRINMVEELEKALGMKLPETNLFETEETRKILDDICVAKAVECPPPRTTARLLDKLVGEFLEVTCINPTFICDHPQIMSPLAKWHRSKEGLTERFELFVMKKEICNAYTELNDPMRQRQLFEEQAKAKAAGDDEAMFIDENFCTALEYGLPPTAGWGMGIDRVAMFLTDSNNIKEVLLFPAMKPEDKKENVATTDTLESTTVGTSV

binding result [1]: no binding | binding result [2]: no binding | binding result [3]: no binding | binding result [4]: no binding | binding result [5]: no binding | binding result [6]: no binding | binding result [7]: no binding | binding result [8]: binds | binding result [9]: binds
B1: anti-AIMP1/p43 scFv Biocon-AM1-1 (scFv)
scFv: EVQLLEFLGEGLVQPGGSLRLSCAASGFTFSSYDMSWVRQAPGKGLEWVSVISSDGGSTYYADSVRGRFTISRDNSKNTLYLQMNSLRAEDTAVYYCAKDVMKTGTLVFDYWGQGTLVTVSSGGGGSGGGGSGGGGSQSVLTQPPSASGTPGQRVTISCSGSSSNIGSNDVSWYQQLPGTAPKLLIYADSKRPSGVPDRFSGSKSGTSASLAISGLRSEDEADYYCGSWDDSLSGYVFGGGTKLTVL
notes: Expressed from pComb3X in the E. coli periplasm; also called antibody i)

binding result [1]: no binding | binding result [2]: no binding | binding result [3]: no binding | binding result [4]: no binding | binding result [5]: no binding | binding result [6]: no binding | binding result [7]: no binding | binding result [8]: binds | binding result [9]: binds
B2: anti-AIMP1/p43 scFv Biocon-AM1-2 (scFv)
scFv: EVQLLESGGGLVQPGGSLRLSCAASGFTFSNYDMSWVRQAPGKGLEWVSSIYPNGSSKYYADSVKGRFTISRDNSKNTLYLQMNSLRAEDTAVYYCARDVLLCISMRCYYADGMDVWGQGTLVTVSSGGGGSGGGGSGGGGSQSVLTQPPSASGTPGQRVTISCSGSSSNIGNNAVNWYQQLPGTAPKLLIYANSHRPSGVPDRFSGSQSGTSASLAISGLRSEDEADYYCGSWDSSLNGYVFGGGTKLTVL
notes: Expressed from pComb3X in the E. coli periplasm; also called antibody ii)
